# Assay results published in patent publication US20230227580A1, “ANTI-VWF ANTIBODIES AND USES THEREOF” (MONASH UNIVERSITY, priority 2020, published 2023).
# Where no end group is shown, it is not given here.
# Experiments:
# VWF = VWF (Homo sapiens, UniProt P04275); test: VWF binding in the presence or absence of ristocetin (FIG. 7)
# [1] = tested on: thrombus formation / platelet deposition; test: Thrombus formation on collagen type I in stenosis channels (SRG versus constant shear); format: cell-based, human; settings: 15 minutes of blood flow; for Platelet deposition: 0.1 µM OS-1
# Source text: (§1) In-house designed PDMS microfluidic chips (FIG. 1A) contained channels of 52 µm height with a footprint of 300 µm x 46 mm (used in FIG. 1) or 300 µm x 17 mm. Selected channels incorporated a semi-circular stenotic section of various lengths (600 µm, 1000 µm or 2000 µm diameter), creating 80% lumen reduction. Chips were manufactured as previously reported (Westein et al. Proceedings of the National Academy of Sciences of the United States of America. 2013 Jan 22;110(4):1357-62). The produced PDMS chips were sealed with cover slips by hydrophobic interaction and coated with collagen by perfusion of collagen solution followed by static incubation at RT for at least 1 hr. Channels were rinsed with PBS and blocked with 2% BSA. Wall shear rates of the input flow for these microchannels were approximated from volumetric flow rates by using the equation, γ = 6Q/wh2. Herein, γ is the wall shear rate (s^-1), Q the volumetric flow rate (mls^-1), w the channel with (cm) and h the channel height (cm).
# (§2) Citrated whole blood was incubated with DiOC6 (0.5 µg ml^-1) (Sigma-Aldrich Co, St. Louis, MO, USA) and drawn through microfluidic channels by a programmable syringe pump (Legato 130, KD Scientific, USA). Time-lapse z-stack images of platelet deposition were captured in multiple track, resonant scanning mode, using a Nikon A1R confocal microscope system. Platelet deposition was recorded over time (2 frames per minute) for up to 20 minutes and quantified in ImageJ using a Z-projection of the acquired signal.
# platelet GPIbα = target: T1, platelet GPIbα (Homo sapiens, UniProt P07359); test: Platelet adhesion to collagen III under constant shear, whole blood perfusion with OS-1; format: cell-based; settings: for Numbers of adherent platelets: 20 µg ml^-1 abciximab; for Platelet adhesion (relative, fluorescence intensity): collagen III, 1,500 s^-1
# T1 construct: endogenous in cells; host or cells: platelets in citrated whole blood
# Source text: as §1, §2
# For experiments measuring rolling velocities, anti αllbβ3 antibody (abciximab; 20 µg ml^-1)-treated whole blood containing 0.5 µg ml^-1 DiOC6 was drawn over a collagen type III-coated surface. Where indicated, blood was incubated with 30 µM aspirin (Sigma Aldrich, USA) and 300 µM 2-MeSAMP (Sigma-Aldrich Co, St. Louis, MO, USA) prior to blood perfusion. 10 second video clips of rolling platelets were recorded in the green fluorescent channel using an Olympus IX81 microscope system. Platelet rolling velocities were calculated using Diatrack v3.04 large scale particle tracking software (Vallotton et al. Microsc Microanal. 2013 Apr;19(2):451-60).
Substance,Mechanism of VWF binding (dependence on conformation) (VWF),Platelet deposition ([1]; constant shear),Platelet deposition ([1]; shear gradient conditions),Thrombus formation ([1]; 2000 s^-1 constant shear),"Thrombus formation ([1]; SRGs (187-1,500 s^-1))","Thrombus formation ([1]; SRGs (300-2,000 s^-1))","Numbers of adherent platelets (platelet GPIbα; 3 µM OS-1, constant shear 2,000 s^-1)","Numbers of adherent platelets (platelet GPIbα; 3 µM OS-1, constant shear above 500 s^-1)","Platelet adhesion (relative, fluorescence intensity) (platelet GPIbα; 3 µM OS-1)","Platelet adhesion (relative, fluorescence intensity) (platelet GPIbα; increasing concentrations of OS-1)"
"Cablivi: commercially available antibody (Cablivi®, Sanofi) binding VWF [reference compound]",conformation independent,,,,,,,,,
"OS-1: cyclic peptide, allosteric inhibitor of GPlbα/VWF interactions with sequence CTERMALHNLC, obtained from Auspep (also: cyclic peptide, ring not described) [reference compound]",,inhibited,inhibited,reduced thrombus formation,inhibited thrombus formation,inhibited thrombus formation,11±4 platelets per field,53±4 platelets per field,completely abolished,concentration dependently reduced
